Data: publication PMC7509637 (Advanced Science, 2020)
Entries after “also recorded” stand apart in the source; their conditions may differ.

Assays:
adult zebrafish brain = assay: TUNEL assay in brain of adult zebrafish; assay type: in vivo, zebrafish (AB, Danio rerio); details: for TUNEL assay, DNA damage / cell death (in words): n = 3
Method: Adult zebrafish (10 months) were employed for the study. Prior to microinjection, adult zebrafish were anesthetized by placing them in a beaker filled with ice‐chilled tricaine (0.01% in Holtfreter's buffer) for 20 s. The samples of Aβ alone and Aβ with FapCS or bacterial biofilm fragments were injected to the cerebroventricular space of adult fish with a 1 µL Hamilton glass syringe. The concentration of the Aβ peptide was 40 × 10^−6 M (in PBS, pH 7.4) while FapCS or biofilm fragments were included at a 10:1 ratio (Aβ:FapCS or biofilm fragments). The needle penetrated between left and right telencephalon for not more than 1 mm and injection volume was 1 µL. The syringe was washed with ethanol and PBS in between the injections. The injections were made under a stereomicroscope and fish were held in place with forceps. After microinjection, the fish was placed back in the water tank for recovery.
The deposition of Aβ, depletion of synaptophysin positive cells and TUNEL assay were measured by IHC. The adult fish, at 4 d or 2 weeks postinjection with Aβ and Aβ with FapCS or biofilm fragments, were euthanized by placing in ice‐chilled tricaine (0.4% in Holtfreter's buffer) for 1 min. The head of the fish was separated at pectoral fin point with a sharp blade and fixed in paraformaldehyde as described in the “Animal husbandry and ethics statement” section. The fixed heads were dehydrated by dipping in gradual concentration of ethanol, i.e., 20%, 40%, 60%, 80%, and 100% with 10 min at each step. The heads were treated with 20% sucrose overnight, mounted with Tissue Trek OCT mounting medium at −20 °C. The heads were then sectioned into […] section with a cryostat. The sections were mounted on a gelatinized glass slide and immunostained with antibodies. The sections were dried, washed thrice in PBS (pH 7.4), and TritonX‐100 (0.05% in PBS) for 5 min each. […] The sections were imaged by a fluorescence microscope and fluorescence intensities were measured from the images with Fiji ImageJ analysis.

Aβ [1] = target: T1, Aβ (Homo sapiens, UniProt P05067); assay: TEM imaging of Aβ with FapC species or bLgS; details: 12 h incubation, uranyl acetate negative stain
T1 construct: purchased Anaspec Inc
Method: Aβ incubated in the presence or absence of FapCS, FapC monomers, FapC fibrils or bLgS were subjected to TEM imaging. After incubation for 12 h, a drop of sample was applied on a glow‐discharged carbon‐coated copper grid. After 1 min, the sample was blotted and then negatively stained with uranyl acetate (1%) for 30 s. The dried grid was then imaged with a Technei F20 TEM at 200 kV. For AFM, a drop of sample was placed on freshly cleaved mica surface and rinsed with water after 2 min and dried with pressurized air. The sample was scanned with an AFM (Nanoscope VIII Multimode Scanning Force Microscopes, Bruker), covered with an acoustic hood to minimize the vibrational noise. Images were acquired under the tapping mode with a silicon nitride cantilever (Bruker). AFM images were processed with Nanoscope Analysis 1.5 software to flatten the background and to calculate the statistical parameters.

Aβ [2] = target: T1, Aβ; assay: ThT kinetic assay of Aβ fibrillization (seeding with FapC species, Aβ seeds, bLgS); assay type: biochemical; details: 37 °C, n = 3
Method: FapC seeds (FapCS) were produced by FapC fibrils of three different ages. The FapC monomers were produced as described^[ ^45 ^] and stored in 6 M GdmCl. Prior to fibrillization, the FapC monomers were purified via a PD10 desalting column. FapC monomers (1 mg mL^−1 or 40 × 10^−6 M) were incubated in deionized water at 37 °C for 1 week to produce mature fibrils and at 37 °C or 25 °C for 4 d to obtain young fibrils. Deionized water was used to make FapC fibrils as it is convenient to transfer the samples to other experimental conditions, i.e., buffered Aβ solution or PBS for in vivo microinjection. However, bacterial amyloids like FapC and curli can make amyloids over a range of conditions.^[ ^93 ^] FapCS were produced by sonicating an aqueous solution of FapC fibrils (10 × 10^−6 M) at 20 power of a probe sonicator (Sonics Vibracell: 750 watts and 20 kHz) for 2 min with 1 s on/off cycle. For in vitro cross‐seeding experiments, 50 × 10^−6 M of Aβ monomers were incubated with 5 × 10^−6 M of FapCS (10:1 molar ratio, Aβ:FapCS) at 37 °C. bLg amyloids were synthesized by heating of bLg monomers (80 °C, pH 2) of 10 mg mL^−1 solution for 24 h. Prior to the production of bLgS, the bLg amyloid solution was brought to pH 7 and then sonicated, similar to FapC, to generate bLgS.
Aβ (Anaspec Inc., purity ≥ 95%) was dissolved in 100 µL of hexafluoro‐2‐propanol (HFIP) and incubated at room temperature for 3 h. The acquired aliquots of this solution were freeze dried and stored at −20 °C for further experimentation. […] For the ThT kinetic assay, a 100 µL of aqueous solution containing Aβ (50 × 10^−6 M), FapCS or bLgS (5 × 10^−6 M) and ThT dye (100 × 10^−6 M) was incubated (37 °C) in a 96‐well plate. The ThT fluorescence (excitation: 445 nm/ emission: 485 nm) was recorded at specified time intervals for 50 h. Kinetic parameters (rate constant k, half‐life t 1/2 and lag‐time) were calculated as described.^[ ^94 ^] Briefly, kinetic curves were fitted to a sigmoidal curve =y0+ymax−y0/1+e^−(t−t1/2)k , where y 0 and y max are initial and final ThT fluorescence values, allowing us to calculate lag time = t 1/2 − 2/k.

Row | Molecule | TUNEL assay, DNA damage / cell death (in words) (adult zebrafish brain; 2 weeks postinjection) | TUNEL assay, DNA damage / cell death (in words) (adult zebrafish brain; 4 d postinjection) | TEM observation (Aβ [1]) | fibrillization rate constant (k) (Aβ [2]; Aβ 50 × 10^−6 M alone or with FapCS 5 × 10^−6 M) [h⁻¹] | DNA damage / toxicity (in words) (adult zebrafish brain; FapCS alone, 4 × 10^−6 M, Figure S13) | effect on half-life t1/2 of Aβ (in words) (Aβ [2]; 5 × 10^−6 M with Aβ 50 × 10^−6 M, **, p < 0.005) | effect on rate constant k of Aβ (in words) (Aβ [2]; 5 × 10^−6 M with Aβ 50 × 10^−6 M, FapCS *, p < 0.05, FapC monomer and fibrils **, p < 0.005) | lag time of Aβ (in words) (Aβ [2]; Aβ 50 × 10^−6 M with FapCS 5 × 10^−6 M, **, p < 0.005) | effect on Aβ fibrillization (ThT) (Aβ [2]; Aβ 50 × 10^−6 M, seeds/FapC species 5 × 10^−6 M, ThT fluorescence ex 445/em 485 nm)
1 | amyloid beta [Aβ] | neuronal cell death; also recorded: DNA damage per the TUNEL assay | negative TUNEL assay | prefibrillary oligomers | 0.7 |  |  |  |  | 
2 | FapCS: FapC seeds obtained by sonication of mature FapC fibrils (P. aeruginosa) (protein) GNEGGWHPPKPNPQSNNKGGATALVVDTQQNYNNKVSNFGTLNNASVSGSIKDASGNVGVNVAAGDNNQQANAAALASADASFVFGTATASTSVLQSGYGNTLNNYSNPNTASLSNSANNVSGNLGVNVAAGNFNQQKNDLAAAVSNGQYSTAGSAASQTSTGNTTVNSANYAYGGTYVSLKLNADGSYKGTSDQIGDVYLDTWEGQTHPGGSNTGHIDVDSQAQGAKDLNHDGGAFAFKEKGDVDLKGTVSGFIPAIVGFKTPVTNNASLSNSLQNVSGNVGVNIAAGGGNQQSNSLSIAAGCSSCPAGGESLGF |  |  | appeared to adsorb onto the growing Aβ fibers |  | no DNA damage; also recorded: non‐toxic nature | significantly shortened | significantly increased | significantly shortened | acceleration of Aβ fibrillization
